In paper PMC5138618 one finds binding in percent of wild type CagL data, which are given here for two molecules.

Common to all, as to assay: ELISA; ELISA-like multiwell assay: wells coated overnight with 100 ng/well recombinant human integrin heterodimer in 100 mM sodium carbonate pH 9.5; blocked with FCS-containing or FCS-free blocker; purified CagL (2.5, 5, 10, 20 ng/well; 10 ng for the comparison of mutants) incubated 3 h, washed; bound CagL detected with anti-CagL antiserum AK271; values relative to wild type CagL set to 100% after background subtraction
In general terms: In an ELISA, binding on a coated surface is turned into a signal by an enzyme label.

Assay [1] addresses recombinant human integrin αvβ5 (human) (UniProt P06756).
Assay [2] concerns the target recombinant human integrin α5β1 (human) (UniProt P08648).
For assay [3], the target named is recombinant human integrin αvβ6 (human) (UniProt P06756).
recombinant human integrin αvβ6 (human), sequence (P06756 31-1048, chain 1 of 2): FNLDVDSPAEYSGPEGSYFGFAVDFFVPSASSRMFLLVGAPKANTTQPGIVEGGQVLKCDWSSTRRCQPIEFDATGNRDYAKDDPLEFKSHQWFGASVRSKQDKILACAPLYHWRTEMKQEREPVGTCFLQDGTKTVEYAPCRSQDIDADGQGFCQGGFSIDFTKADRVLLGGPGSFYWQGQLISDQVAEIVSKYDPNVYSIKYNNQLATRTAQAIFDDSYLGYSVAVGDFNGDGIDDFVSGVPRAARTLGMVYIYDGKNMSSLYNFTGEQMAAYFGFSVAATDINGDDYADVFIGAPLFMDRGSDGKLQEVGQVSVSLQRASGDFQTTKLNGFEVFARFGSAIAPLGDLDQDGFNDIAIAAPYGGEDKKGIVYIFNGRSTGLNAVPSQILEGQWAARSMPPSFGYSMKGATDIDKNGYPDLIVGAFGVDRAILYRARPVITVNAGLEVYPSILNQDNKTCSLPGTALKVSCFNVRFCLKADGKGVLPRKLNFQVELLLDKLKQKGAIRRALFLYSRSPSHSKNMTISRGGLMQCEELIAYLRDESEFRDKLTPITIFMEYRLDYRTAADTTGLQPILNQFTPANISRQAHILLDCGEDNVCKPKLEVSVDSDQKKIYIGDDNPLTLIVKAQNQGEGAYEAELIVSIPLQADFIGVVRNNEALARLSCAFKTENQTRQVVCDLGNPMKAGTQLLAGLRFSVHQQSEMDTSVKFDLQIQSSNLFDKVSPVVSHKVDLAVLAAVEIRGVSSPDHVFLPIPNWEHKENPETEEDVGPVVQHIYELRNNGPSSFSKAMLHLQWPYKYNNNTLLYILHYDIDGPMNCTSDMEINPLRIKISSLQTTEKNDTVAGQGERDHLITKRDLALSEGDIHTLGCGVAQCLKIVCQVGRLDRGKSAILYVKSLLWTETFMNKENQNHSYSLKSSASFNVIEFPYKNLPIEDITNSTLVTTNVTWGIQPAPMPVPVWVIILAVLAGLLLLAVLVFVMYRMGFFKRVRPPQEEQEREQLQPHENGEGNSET
recombinant human integrin αvβ6 (human), sequence (P18564 22-709, chain 2 of 2, further chain): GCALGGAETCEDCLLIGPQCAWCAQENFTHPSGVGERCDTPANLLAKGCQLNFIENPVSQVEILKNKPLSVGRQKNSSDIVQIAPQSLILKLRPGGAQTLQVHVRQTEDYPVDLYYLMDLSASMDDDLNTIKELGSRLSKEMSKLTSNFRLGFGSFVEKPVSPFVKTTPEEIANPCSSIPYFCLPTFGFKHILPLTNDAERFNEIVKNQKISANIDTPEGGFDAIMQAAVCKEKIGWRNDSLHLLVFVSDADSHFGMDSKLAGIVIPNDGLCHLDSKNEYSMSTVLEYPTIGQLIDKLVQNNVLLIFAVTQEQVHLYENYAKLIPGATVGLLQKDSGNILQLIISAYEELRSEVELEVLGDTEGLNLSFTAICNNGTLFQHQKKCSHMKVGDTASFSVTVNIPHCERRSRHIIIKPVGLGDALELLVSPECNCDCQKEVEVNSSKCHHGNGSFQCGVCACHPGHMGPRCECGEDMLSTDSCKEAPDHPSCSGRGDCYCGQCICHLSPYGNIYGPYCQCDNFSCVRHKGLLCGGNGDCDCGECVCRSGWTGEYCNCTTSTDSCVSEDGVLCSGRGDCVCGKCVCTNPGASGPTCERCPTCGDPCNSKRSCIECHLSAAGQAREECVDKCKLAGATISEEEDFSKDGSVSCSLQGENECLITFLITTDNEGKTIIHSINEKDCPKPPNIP

recombinant human integrin α5β1 (human), sequence (P08648 42-1049, chain 1 of 2): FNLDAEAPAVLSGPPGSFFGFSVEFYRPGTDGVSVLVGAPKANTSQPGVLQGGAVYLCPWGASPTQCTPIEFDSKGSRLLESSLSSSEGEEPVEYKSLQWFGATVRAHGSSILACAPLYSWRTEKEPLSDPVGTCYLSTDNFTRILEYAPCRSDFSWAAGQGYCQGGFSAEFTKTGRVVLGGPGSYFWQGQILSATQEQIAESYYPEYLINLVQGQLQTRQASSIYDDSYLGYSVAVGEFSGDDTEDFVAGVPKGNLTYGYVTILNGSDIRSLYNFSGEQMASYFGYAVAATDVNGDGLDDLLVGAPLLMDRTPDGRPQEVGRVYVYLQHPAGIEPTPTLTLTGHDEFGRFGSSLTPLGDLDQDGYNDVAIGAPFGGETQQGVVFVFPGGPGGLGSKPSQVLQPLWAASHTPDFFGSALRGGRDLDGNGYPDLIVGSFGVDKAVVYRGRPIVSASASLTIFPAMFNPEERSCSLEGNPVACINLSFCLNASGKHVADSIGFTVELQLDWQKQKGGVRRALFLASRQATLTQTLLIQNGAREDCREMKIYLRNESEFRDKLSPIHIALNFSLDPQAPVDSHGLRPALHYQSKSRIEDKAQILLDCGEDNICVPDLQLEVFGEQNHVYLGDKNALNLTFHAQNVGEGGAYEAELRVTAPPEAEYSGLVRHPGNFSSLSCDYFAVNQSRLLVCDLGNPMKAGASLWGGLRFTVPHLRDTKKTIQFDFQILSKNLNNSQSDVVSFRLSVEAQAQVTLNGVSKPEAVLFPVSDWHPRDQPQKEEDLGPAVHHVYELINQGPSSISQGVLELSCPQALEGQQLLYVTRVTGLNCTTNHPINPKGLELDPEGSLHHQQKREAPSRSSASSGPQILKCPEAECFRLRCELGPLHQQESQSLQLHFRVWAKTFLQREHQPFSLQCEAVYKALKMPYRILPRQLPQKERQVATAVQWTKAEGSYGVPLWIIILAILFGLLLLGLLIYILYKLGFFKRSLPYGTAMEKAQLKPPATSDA
recombinant human integrin α5β1 (human), sequence (P05556 21-728, chain 2 of 2, further chain): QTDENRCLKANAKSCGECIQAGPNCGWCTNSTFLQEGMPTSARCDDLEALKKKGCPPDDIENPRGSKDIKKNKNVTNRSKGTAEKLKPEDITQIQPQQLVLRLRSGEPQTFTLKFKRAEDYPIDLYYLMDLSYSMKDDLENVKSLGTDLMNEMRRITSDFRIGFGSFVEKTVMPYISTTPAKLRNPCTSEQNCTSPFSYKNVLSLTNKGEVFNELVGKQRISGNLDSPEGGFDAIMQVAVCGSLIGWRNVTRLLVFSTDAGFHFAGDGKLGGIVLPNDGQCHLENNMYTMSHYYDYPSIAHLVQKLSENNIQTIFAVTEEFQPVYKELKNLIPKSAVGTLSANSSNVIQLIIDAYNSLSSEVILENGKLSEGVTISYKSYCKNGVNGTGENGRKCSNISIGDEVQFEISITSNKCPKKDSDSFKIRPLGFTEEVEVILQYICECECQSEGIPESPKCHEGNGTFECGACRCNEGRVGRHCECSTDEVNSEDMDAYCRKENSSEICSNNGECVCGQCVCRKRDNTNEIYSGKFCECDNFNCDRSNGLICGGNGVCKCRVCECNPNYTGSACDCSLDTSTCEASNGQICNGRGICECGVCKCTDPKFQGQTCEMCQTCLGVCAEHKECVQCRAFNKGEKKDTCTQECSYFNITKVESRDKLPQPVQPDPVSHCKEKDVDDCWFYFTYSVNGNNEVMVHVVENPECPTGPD
recombinant human integrin αvβ5 (human), sequence (P06756 31-1048, chain 1 of 2): as the sequence (P06756 31-1048, chain 1 of 2) above
recombinant human integrin αvβ5 (human), sequence (P18084 24-719, chain 2 of 2, further chain): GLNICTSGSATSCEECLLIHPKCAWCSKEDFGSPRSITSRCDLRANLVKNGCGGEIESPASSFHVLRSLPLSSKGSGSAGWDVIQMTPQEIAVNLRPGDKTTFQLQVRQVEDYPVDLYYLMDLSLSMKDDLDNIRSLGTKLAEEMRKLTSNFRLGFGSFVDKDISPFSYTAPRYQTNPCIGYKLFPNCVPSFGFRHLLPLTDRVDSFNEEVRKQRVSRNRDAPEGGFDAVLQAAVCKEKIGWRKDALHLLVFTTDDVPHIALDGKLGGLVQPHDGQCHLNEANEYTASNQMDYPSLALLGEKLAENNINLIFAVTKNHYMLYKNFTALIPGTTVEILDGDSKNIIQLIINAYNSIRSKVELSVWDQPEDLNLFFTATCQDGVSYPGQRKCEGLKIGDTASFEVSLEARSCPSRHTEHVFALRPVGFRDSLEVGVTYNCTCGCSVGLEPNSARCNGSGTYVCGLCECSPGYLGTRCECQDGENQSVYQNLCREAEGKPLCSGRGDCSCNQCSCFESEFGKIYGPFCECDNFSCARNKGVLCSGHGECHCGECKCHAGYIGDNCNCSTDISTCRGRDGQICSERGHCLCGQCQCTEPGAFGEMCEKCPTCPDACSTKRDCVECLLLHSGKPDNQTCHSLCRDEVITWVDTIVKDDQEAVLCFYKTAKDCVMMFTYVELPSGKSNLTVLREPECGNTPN

B1: CagL^ΔRGDΔTASLI double motif deletion, recombinant (natural protein)
chain: EDITSGLKQLDSTYQETNQQVLKNLDEIFSTTSPSANNEMGEEDALNIKKAAIALLALLKANFEANELFFISEDVIFKTYMSSPELLLTYMKINPLDQNTAEQQCGISDKVLVLYCEGKLKIEQEKQNIRERLETSLKAYQSNIGGTASQTLVESLKNKNFIKGIRKLMLAHNKVFLNYLEELDALERSLEQSKRQYLQERQSSKIIVK
Consider B1, for which the binding in percent of wild type CagL in assay [1], in assay [2] and in assay [3] was less than 36% throughout.

B2: CagL^ΔRGD motif variant, recombinant (natural protein)
chain: EDITSGLKQLDSTYQETNQQVLKNLDEIFSTTSPSANNEMGEEDALNIKKAAIALLALLKANFEANELFFISEDVIFKTYMSSPELLLTYMKINPLDQNTAEQQCGISDKVLVLYCEGKLKIEQEKQNIRERLETSLKAYQSNIGGTASLITASQTLVESLKNKNFIKGIRKLMLAHNKVFLNYLEELDALERSLEQSKRQYLQERQSSKIIVK
Take B2: the binding in percent of wild type CagL in assay [1], in assay [2] and in assay [3] was less than 50% each time.
